Measured values: patent US20250382355A1

Target: SARS-CoV-2 WT spike on rVSV-deltaG-Luc pseudovirus (SARS-CoV-2), P0DTC2
Experiment: cell-based or functional assay

| Binder | pseudovirus neutralization IC50 [nM] |
| --- | --- |
| 8E9 VHH-Fc (Fc fusion) QVQLVESGGGLVEAGGSLRLSCVASGSSSSINAMGWYRQAPGKQRELVASISHDGETKYANSVKGRFTISRGNAKNTIYLQMNSLKPEDTAVYYCVGDVAWVVVAGEYDYWGQGTQVTVSS | 12.4 |
| 11F8 VHH-Fc (Fc fusion) QVQLVESGGGLVQAGGSLRLSCAASGRTVGYYAVGWFRQAPGKERDFVAAISWSGRNTNYADSVTGRFTIFRDNAKNTVDLQMNSLKPEDTAVYYCAADYWNYGSGSEVPNNYDTWGQGTQVTVSS | 1.07 |
| 13C8 VHH-Fc (Fc fusion) QVQLVESGGGLVQAGGSLRLSCAASGRTVNKYMTGWFRQTPGKEREFVASIDWSSTTTHYANSVKGRFTISRDKVKNTVYLQMNGLKPEDTAVYYCAAHQDSSYGYTILPIDYDSWGQGTQVTVSS | 6.69 |
| 15H1 VHH-Fc (Fc fusion) QVQLVESGGGLAQAGGSLRLSCASSGLIFSGSAMGWFRQAPGKEREFVGVISWNGRTTYADSVKGRFTISRDDAVNMVWLQMNNLKPEDTAVYYCAADHLNYGSGDVNPRTYDYWGQGTQVTVSS | 5.04 |
| 15H7 VHH-Fc (Fc fusion) QVQLVESGGRLVQAGGSLRLSCAAPGRTFRNLTLGWFRQAPGKEREFVASTSWPDDEMTYYTDSVKGRFTISRDNAKNTVYLQMNSLKPEDTAVYYCAAASWSGRSTLSYDYDYWGQGTQVTVST | 1.33 |
| 1A11 VHH-Fc (Fc fusion) QVQLVESGGGLVQAGGSLRLSCEVSGSIYSINSMGWYRQAPGKQRELVAGIVSDGRINYADSVKGRFTISRAKNTVYLQMNSLKPEDTAVYYCAADRAFVYAGDYDYLGQGTQVTVSS | 0.57 |
| 1E4 VHH-Fc (Fc fusion) QVLLVESGGGLVQAGGLLRLACSASGRTFTENVMGWFRQAPGKEREFVAAINWNTGSTYYSDSRKGRFTISKDNAKNTMFLQINNLKPEDTAVYYCGGTSSSYYYIGEFIPDYWGQGTQVTVSS | 0.31 |
| 19E10 VHH-Fc (Fc fusion) QVQLVESGGGLVQPGGSLRLSCVASGSTISINSMGWYRQAPGKAREMVATITNDGPIKYADPVKGRFTISRDNPKNTVYLQMNSLKPEDTAVYYCVADRAYWLAGEWEYWGQGTQVTVSS | 1.53 |
| 5D7 VHH-Fc (Fc fusion) QVQLVESGGGLVQAGGSLRLSCAASGRTGSRYIMGWFRQAPGKEREFVAAINWRGDSTYYADSVKGRFTIARDNAKNTAYLQMNSLKPEDTAVYYCVADRGESYYYTRSTEYTYWGQGTQVTVSS | 6.52 |
| 10B8 VHH-Fc (Fc fusion) QVQLVESGGGLVQPGGSLRLSCAASGITLDYYAIAWFRQAPGKEREGVSCFCSSDGDIRYADSVKGRFTISRDNAKNTVYLQMNSLKPEDTAVYYCATERVYSSTWFFHRYSELDFGSWGRGTQVTVSS | 0.68 |
| 9B2 VHH-Fc (Fc fusion) QVQLVESGGGLVQPGGSLRLSCAASGFTLDNYAIGWFRQAPGKEREGVSCISSSDGDTQYADSVKGRFTISRDNAKNTVYLQMNSLKPEDTAVYYCAVEKVYARSWFFHLCSELDFGSWGQGTQVTVSS | 1.93 |
| 3D4 VHH-Fc (Fc fusion) QVQLVESGGGLVQPGGSLRLSCAASGFTLDLNSIGWFRQAPGKEREGVSCISPSGSRMHYADSVKGRFTISRDNAKNTVYLQMNSLKPEDTAVYYCATGSPSYHYCSMYGLEYDSWGQGTQVTVPS | 1.22 |
| 5A6 VHH-Fc (Fc fusion) QVQLVESGGGLAQAGGSLRLSCATSGLTFSMSAMGWFRQAPGNEREFVGVINWNGGSSRYADSVRGRFTISRDNAKNTVYLQMNSLKPEDTGVYYCAADALNIGTGEVNPRLYDYWGQGTQVMVSS | 8.57 |
| 19C10 VHH-Fc (Fc fusion) QVQLVESGGGLVQPGGSLRLSCAASGFTLDLNSIGWFRQAPGKEREGVSCISPSASSTHYADSVKGRFTISRDNAKNTVYLQMNSLKPEDTAVYYCATGTPSYHYCSMYGLEYDDWGQGTQVTVSS | 1.49 |
| 7A9 VHH-Fc (Fc fusion) QVQLVESGGGLVQAGGSLRLSCSASGGTASRSAMGWFRQAPGKEREFVAGISRRNSGSTYVADSYEDSVKGRFTISRDNAKNTIYLQMNSLKPEDTAVYYCAAEPTLGWYVPRRSVEYEYWGQGTQVTVSS | 110 |
| 19B8 VHH-Fc (Fc fusion) QVQLVESGGGLVQAGGSLRLSCAASGRTFTNYAMGWFRQAPGKEREFVAAISWSGGGTNYADSVKGRFTISRDNAKNTVYLQMNSPKPEDTAVYYCATTLGYYGSSSRLYEYWGQGTQVTVSS | 53.5 |
